Experimental data as given in patent US12679878B2, “CRF2 receptor agonists and their use in therapy” (SANOFI, priority 2020, dated 2026).
Starred links: 1 amine or outer side, 2 acyl side, 3 side chain; linkers in the order of their positions; H or OH if unused. Non-standard residues stand in square brackets, D forms with d. Groups on a side chain read outwards from the residue. No end group written: not given here. *: point of attachment. C20 diacid = O=C(O)CCCCCCCCCCCCCCCCCCC(=O)*; C18 diacid = O=C(O)CCCCCCCCCCCCCCCCC(=O)*; γGlu = O=C(O)[C@H](CCC(=O)[*:2])N[*:1]; AEEA = NCCOCCOCC(=O)O; Aib = CC(C)(N)C(=O)O

B1: peptide of SEQ ID NO: 158 (peptide)
peptide: Ac-IVLSLD[dV]PIKLK([AEEA-AEEA-γGlu-C18 diacid])QILLEQERQK[Aib]QREQAEKNKQILEQV-NH2
SMILES: CC[C@H](C)[C@H](NC(C)=O)C(=O)N[C@H](C(=O)N[C@@H](CC(C)C)C(=O)N[C@@H](CO)C(=O)N[C@@H](CC(C)C)C(=O)N[C@@H](CC(=O)O)C(=O)N[C@@H](C(=O)N1CCC[C@H]1C(=O)N[C@H](C(=O)N[C@@H](CCCCN)C(=O)N[C@@H](CC(C)C)C(=O)N[C@@H](CCCCNC(=O)COCCOCCNC(=O)COCCOCCNC(=O)CC[C@H](NC(=O)CCCCCCCCCCCCCCCCC(=O)O)C(=O)O)C(=O)N[C@@H](CCC(N)=O)C(=O)N[C@H](C(=O)N[C@@H](CC(C)C)C(=O)N[C@@H](CC(C)C)C(=O)N[C@@H](CCC(=O)O)C(=O)N[C@@H](CCC(N)=O)C(=O)N[C@@H](CCC(=O)O)C(=O)N[C@@H](CCCNC(=N)N)C(=O)N[C@@H](CCC(N)=O)C(=O)N[C@@H](CCCCN)C(=O)NC(C)(C)C(=O)N[C@@H](CCC(N)=O)C(=O)N[C@@H](CCCNC(=N)N)C(=O)N[C@@H](CCC(=O)O)C(=O)N[C@@H](CCC(N)=O)C(=O)N[C@@H](C)C(=O)N[C@@H](CCC(=O)O)C(=O)N[C@@H](CCCCN)C(=O)N[C@@H](CC(N)=O)C(=O)N[C@@H](CCCCN)C(=O)N[C@@H](CCC(N)=O)C(=O)N[C@H](C(=O)N[C@@H](CC(C)C)C(=O)N[C@@H](CCC(=O)O)C(=O)N[C@@H](CCC(N)=O)C(=O)N[C@H](C(N)=O)C(C)C)[C@@H](C)CC)[C@@H](C)CC)[C@@H](C)CC)C(C)C)C(C)C
B2: peptide of SEQ ID NO: 159 (peptide)
peptide: Ac-IVLSLD[dV]PIKLK([AEEA-AEEA-γGlu-C18 diacid])QILLEQERQE[Aib]QREQAEKNKQILEQV-NH2
SMILES: CC[C@H](C)[C@H](NC(C)=O)C(=O)N[C@H](C(=O)N[C@@H](CC(C)C)C(=O)N[C@@H](CO)C(=O)N[C@@H](CC(C)C)C(=O)N[C@@H](CC(=O)O)C(=O)N[C@@H](C(=O)N1CCC[C@H]1C(=O)N[C@H](C(=O)N[C@@H](CCCCN)C(=O)N[C@@H](CC(C)C)C(=O)N[C@@H](CCCCNC(=O)COCCOCCNC(=O)COCCOCCNC(=O)CC[C@H](NC(=O)CCCCCCCCCCCCCCCCC(=O)O)C(=O)O)C(=O)N[C@@H](CCC(N)=O)C(=O)N[C@H](C(=O)N[C@@H](CC(C)C)C(=O)N[C@@H](CC(C)C)C(=O)N[C@@H](CCC(=O)O)C(=O)N[C@@H](CCC(N)=O)C(=O)N[C@@H](CCC(=O)O)C(=O)N[C@@H](CCCNC(=N)N)C(=O)N[C@@H](CCC(N)=O)C(=O)N[C@@H](CCC(=O)O)C(=O)NC(C)(C)C(=O)N[C@@H](CCC(N)=O)C(=O)N[C@@H](CCCNC(=N)N)C(=O)N[C@@H](CCC(=O)O)C(=O)N[C@@H](CCC(N)=O)C(=O)N[C@@H](C)C(=O)N[C@@H](CCC(=O)O)C(=O)N[C@@H](CCCCN)C(=O)N[C@@H](CC(N)=O)C(=O)N[C@@H](CCCCN)C(=O)N[C@@H](CCC(N)=O)C(=O)N[C@H](C(=O)N[C@@H](CC(C)C)C(=O)N[C@@H](CCC(=O)O)C(=O)N[C@@H](CCC(N)=O)C(=O)N[C@H](C(N)=O)C(C)C)[C@@H](C)CC)[C@@H](C)CC)[C@@H](C)CC)C(C)C)C(C)C
B3: peptide of SEQ ID NO: 162 (peptide)
peptide: Ac-IVLSLD[dV]PIELK([AEEA-AEEA-γGlu-C18 diacid])QILLEQERQK[Aib]QREQAEKNKQILEQV-NH2
SMILES: CC[C@H](C)[C@H](NC(C)=O)C(=O)N[C@H](C(=O)N[C@@H](CC(C)C)C(=O)N[C@@H](CO)C(=O)N[C@@H](CC(C)C)C(=O)N[C@@H](CC(=O)O)C(=O)N[C@@H](C(=O)N1CCC[C@H]1C(=O)N[C@H](C(=O)N[C@@H](CCC(=O)O)C(=O)N[C@@H](CC(C)C)C(=O)N[C@@H](CCCCNC(=O)COCCOCCNC(=O)COCCOCCNC(=O)CC[C@H](NC(=O)CCCCCCCCCCCCCCCCC(=O)O)C(=O)O)C(=O)N[C@@H](CCC(N)=O)C(=O)N[C@H](C(=O)N[C@@H](CC(C)C)C(=O)N[C@@H](CC(C)C)C(=O)N[C@@H](CCC(=O)O)C(=O)N[C@@H](CCC(N)=O)C(=O)N[C@@H](CCC(=O)O)C(=O)N[C@@H](CCCNC(=N)N)C(=O)N[C@@H](CCC(N)=O)C(=O)N[C@@H](CCCCN)C(=O)NC(C)(C)C(=O)N[C@@H](CCC(N)=O)C(=O)N[C@@H](CCCNC(=N)N)C(=O)N[C@@H](CCC(=O)O)C(=O)N[C@@H](CCC(N)=O)C(=O)N[C@@H](C)C(=O)N[C@@H](CCC(=O)O)C(=O)N[C@@H](CCCCN)C(=O)N[C@@H](CC(N)=O)C(=O)N[C@@H](CCCCN)C(=O)N[C@@H](CCC(N)=O)C(=O)N[C@H](C(=O)N[C@@H](CC(C)C)C(=O)N[C@@H](CCC(=O)O)C(=O)N[C@@H](CCC(N)=O)C(=O)N[C@H](C(N)=O)C(C)C)[C@@H](C)CC)[C@@H](C)CC)[C@@H](C)CC)C(C)C)C(C)C
B4: peptide of SEQ ID NO: 173 (peptide)
peptide: IVLSLD[dV]PIKLK([AEEA-AEEA-γGlu-C20 diacid])QILLKQERQK[Aib]QREQAEKNKQILAQV-NH2
modifications: N-terminus assumed
SMILES: CC[C@H](C)[C@H](N)C(=O)N[C@H](C(=O)N[C@@H](CC(C)C)C(=O)N[C@@H](CO)C(=O)N[C@@H](CC(C)C)C(=O)N[C@@H](CC(=O)O)C(=O)N[C@@H](C(=O)N1CCC[C@H]1C(=O)N[C@H](C(=O)N[C@@H](CCCCN)C(=O)N[C@@H](CC(C)C)C(=O)N[C@@H](CCCCNC(=O)COCCOCCNC(=O)COCCOCCNC(=O)CC[C@H](NC(=O)CCCCCCCCCCCCCCCCCCC(=O)O)C(=O)O)C(=O)N[C@@H](CCC(N)=O)C(=O)N[C@H](C(=O)N[C@@H](CC(C)C)C(=O)N[C@@H](CC(C)C)C(=O)N[C@@H](CCCCN)C(=O)N[C@@H](CCC(N)=O)C(=O)N[C@@H](CCC(=O)O)C(=O)N[C@@H](CCCNC(=N)N)C(=O)N[C@@H](CCC(N)=O)C(=O)N[C@@H](CCCCN)C(=O)NC(C)(C)C(=O)N[C@@H](CCC(N)=O)C(=O)N[C@@H](CCCNC(=N)N)C(=O)N[C@@H](CCC(=O)O)C(=O)N[C@@H](CCC(N)=O)C(=O)N[C@@H](C)C(=O)N[C@@H](CCC(=O)O)C(=O)N[C@@H](CCCCN)C(=O)N[C@@H](CC(N)=O)C(=O)N[C@@H](CCCCN)C(=O)N[C@@H](CCC(N)=O)C(=O)N[C@H](C(=O)N[C@@H](CC(C)C)C(=O)N[C@@H](C)C(=O)N[C@@H](CCC(N)=O)C(=O)N[C@H](C(N)=O)C(C)C)[C@@H](C)CC)[C@@H](C)CC)[C@@H](C)CC)C(C)C)C(C)C
B5: peptide of SEQ ID NO: 174 (peptide)
peptide: IVLSLD[dV]PIKLK([AEEA-AEEA-γGlu-γGlu-C18 diacid])QILLKQARQK[Aib]QRAQAEKNKRILERV-NH2
modifications: N-terminus assumed
SMILES: CC[C@H](C)[C@H](N)C(=O)N[C@H](C(=O)N[C@@H](CC(C)C)C(=O)N[C@@H](CO)C(=O)N[C@@H](CC(C)C)C(=O)N[C@@H](CC(=O)O)C(=O)N[C@@H](C(=O)N1CCC[C@H]1C(=O)N[C@H](C(=O)N[C@@H](CCCCN)C(=O)N[C@@H](CC(C)C)C(=O)N[C@@H](CCCCNC(=O)COCCOCCNC(=O)COCCOCCNC(=O)CC[C@H](NC(=O)CC[C@H](NC(=O)CCCCCCCCCCCCCCCCC(=O)O)C(=O)O)C(=O)O)C(=O)N[C@@H](CCC(N)=O)C(=O)N[C@H](C(=O)N[C@@H](CC(C)C)C(=O)N[C@@H](CC(C)C)C(=O)N[C@@H](CCCCN)C(=O)N[C@@H](CCC(N)=O)C(=O)N[C@@H](C)C(=O)N[C@@H](CCCNC(=N)N)C(=O)N[C@@H](CCC(N)=O)C(=O)N[C@@H](CCCCN)C(=O)NC(C)(C)C(=O)N[C@@H](CCC(N)=O)C(=O)N[C@@H](CCCNC(=N)N)C(=O)N[C@@H](C)C(=O)N[C@@H](CCC(N)=O)C(=O)N[C@@H](C)C(=O)N[C@@H](CCC(=O)O)C(=O)N[C@@H](CCCCN)C(=O)N[C@@H](CC(N)=O)C(=O)N[C@@H](CCCCN)C(=O)N[C@@H](CCCNC(=N)N)C(=O)N[C@H](C(=O)N[C@@H](CC(C)C)C(=O)N[C@@H](CCC(=O)O)C(=O)N[C@@H](CCCNC(=N)N)C(=O)N[C@H](C(N)=O)C(C)C)[C@@H](C)CC)[C@@H](C)CC)[C@@H](C)CC)C(C)C)C(C)C
B6: peptide of SEQ ID NO: 182 (peptide)
peptide: IVLSLD[dV]PIKLK(C18 diacid)QILLKQERQK[Aib]QREQAEKNKQILAQV-NH2
modifications: N-terminus assumed
SMILES: CC[C@H](C)[C@H](N)C(=O)N[C@H](C(=O)N[C@@H](CC(C)C)C(=O)N[C@@H](CO)C(=O)N[C@@H](CC(C)C)C(=O)N[C@@H](CC(=O)O)C(=O)N[C@@H](C(=O)N1CCC[C@H]1C(=O)N[C@H](C(=O)N[C@@H](CCCCN)C(=O)N[C@@H](CC(C)C)C(=O)N[C@@H](CCCCNC(=O)CCCCCCCCCCCCCCCCC(=O)O)C(=O)N[C@@H](CCC(N)=O)C(=O)N[C@H](C(=O)N[C@@H](CC(C)C)C(=O)N[C@@H](CC(C)C)C(=O)N[C@@H](CCCCN)C(=O)N[C@@H](CCC(N)=O)C(=O)N[C@@H](CCC(=O)O)C(=O)N[C@@H](CCCNC(=N)N)C(=O)N[C@@H](CCC(N)=O)C(=O)N[C@@H](CCCCN)C(=O)NC(C)(C)C(=O)N[C@@H](CCC(N)=O)C(=O)N[C@@H](CCCNC(=N)N)C(=O)N[C@@H](CCC(=O)O)C(=O)N[C@@H](CCC(N)=O)C(=O)N[C@@H](C)C(=O)N[C@@H](CCC(=O)O)C(=O)N[C@@H](CCCCN)C(=O)N[C@@H](CC(N)=O)C(=O)N[C@@H](CCCCN)C(=O)N[C@@H](CCC(N)=O)C(=O)N[C@H](C(=O)N[C@@H](CC(C)C)C(=O)N[C@@H](C)C(=O)N[C@@H](CCC(N)=O)C(=O)N[C@H](C(N)=O)C(C)C)[C@@H](C)CC)[C@@H](C)CC)[C@@H](C)CC)C(C)C)C(C)C

Target: rat CRF2R α receptor (rat, UniProt P47866 20-411)
Test: cell-based or functional assay

Sequence of rat CRF2R α receptor (P47866 20-411): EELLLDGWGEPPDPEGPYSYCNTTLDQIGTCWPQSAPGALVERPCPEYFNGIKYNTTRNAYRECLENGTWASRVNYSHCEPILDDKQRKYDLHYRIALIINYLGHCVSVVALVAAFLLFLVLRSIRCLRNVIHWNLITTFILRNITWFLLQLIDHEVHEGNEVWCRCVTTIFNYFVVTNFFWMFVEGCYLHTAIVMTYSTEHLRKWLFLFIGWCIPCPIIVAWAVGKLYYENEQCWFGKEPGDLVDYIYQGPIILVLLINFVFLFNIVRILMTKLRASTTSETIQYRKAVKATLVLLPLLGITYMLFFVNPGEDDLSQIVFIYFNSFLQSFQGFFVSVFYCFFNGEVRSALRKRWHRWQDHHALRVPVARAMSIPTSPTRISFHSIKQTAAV

| Binder | EC50 [nM], 0% HSA (cAMP, A7R5 cells) [nM] |
| --- | --- |
| B1 | 5.29 |
| B2 | 15.6 |
| B3 | 48.6 |
| Ac-IVLSLD[dV]PIHLK([AEEA-AEEA-γGlu-C18 diacid])QILLEQERQK[Aib]QREQAEKNKQILEQV-NH2 [peptide of SEQ ID NO: 163] | 1.5 |
| B4 | 0.83 |
| B5 | 0.42 |
| B6 | 0.59 |
